Data as given in patent publication US20100041612A1 (published 2010).
Ends that are not written are not given here.

Legend:
[1] = biological target: wild-type human GLP-1 receptor (human, UniProt P43220 24-463); assay: cell-based or functional assay
[2] = biological target: hyperactive human GLP-1 receptor variant (human); assay: cell-based or functional assay

Row | Binder | cAMP production (radioimmunoassay), half maximal excitatory concentration (EC50) [1] | cAMP production (radioimmunoassay), EC50 [2] | cAMP production, fold potency increase against the same peptide at the wild type receptor [2] | cAMP production (radioimmunoassay), EC50 [1] | cAMP production, fold potency increase against GLP-1 (7-20) amide without biphenylalanine [1] | cAMP production, fold higher potency against GLP-1 (7-20) amide -bpa at the hyperactive receptor [2]
1 | HAEGTFTSDVSSYL-NH2 [GLP-1 (7-20) amide] | 240 µM | 24 µM | 10 fold |  |  | 
2 | HAEGTFTSDVSSYL-biphenylalanine (not fully specified) [GLP-1 (7-20) carboxy-terminal tethered with biphenylalanine] |  | 2 µM |  | 11 µM | 22 fold | 10 fold
